Measurements: patent publication US6204034A, “Leukotriene C4 synthase” (Merck Frosst Canada & Co., priority 1994, dated 2001)
Each block holds one molecule with its values, some of them ahead of it.

Tests used:
LTC4 synthase [1] = biological target: T1, LTC4 synthase (Homo sapiens, UniProt Q16873); assay: Measurement of LTC4 synthase activity (LTC4 formation from LTA4 and reduced glutathione, reverse-phase HPLC); type: biochemical; set-up: endogenous in cells; host or cells: THP-1 cells; some values from human lung tissue
T1 sequence (Q16873 1-150): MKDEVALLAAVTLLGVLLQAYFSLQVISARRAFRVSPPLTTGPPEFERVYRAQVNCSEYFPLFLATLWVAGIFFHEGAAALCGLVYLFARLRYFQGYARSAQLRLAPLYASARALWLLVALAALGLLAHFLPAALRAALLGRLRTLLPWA
Protocol: The mixtures were allowed to stand for a minimum of 30 min. at 4° C. (or overnight). […] The bulk of the resulting supernatant (250 μl) was then transferred to sample vials for reverse-phase HPLC of which 200 μl was injected for analysis.
Analysis of LTC4 Formation by Reverse-Phase HPLC--The reaction products formed in the incubation mixtures described above were resolved by isocratic reverse-phase HPLC on a Waters Associates Novapak C18 column (3.9×150 mm, 4μ particle size). The mobile phase was acetonitrile:methanol:water:acetic acid at 54:14:28:1 adjusted to pH 5.6 with 10 NaOH and was pumped at a flow rate of 1.0 mL/min. LTC4 was quantified by on-line measurement of the optical density at 280 nm. The LTC4 peak was identified by its retention time compared to a synthetic standard (normally 10 min.).

LTC4 synthase [2] = biological target: T1, LTC4 synthase; conditions: LTC2-X-biotin:streptavidin-agarose column
[3] = Longevity of LTA4 free acid in mock incubation mixtures under aqueous conditions; type: physicochemical; conditions: mock incubation mixtures with 0.05% (w/v) bovine serum albumin and potassium phosphate buffer
From the text: Hydrolysis of LTA4 Methyl Ester--The methyl ester of leukotriene A4 was hydrolyzed to the free acid essentially as described by Carrier, D. J. et al., Prostaglandins Leukot. Essent. Fatty Acids, 34, 27-30 (1988). The hydrolysis was monitored by determination of LTA4 by reverse-phase HPLC at pH 10 (Wynalda, M. A. et al., Anal. Chem., 54, 1079-1082 (1982)) except that LTA4 and LTA4 -methyl ester were eluted by a gradient of 20 to 70% (v/v) acetonitrile in borate buffer instead of isocratically as described in Wynalda et al. LTA4 -methyl ester (1.0 mg in hexane) was dried under a stream of nitrogen and then dissolved in 4 mL of 0.25 M NaOH:acetone (2:8 v/v). Following incubation for 60 min. at 25° C., the hydrolysis mixture was portioned into aliquots that were stored at -80° C. (up to 1 month). Following this procedure, the recovery of LTA4 free acid was >95% as confirmed by analysis of the hydrolysis products by reverse-phase HPLC under alkaline conditions (Wynalda et al.).

[4] = biological target: T2, THP-1 microsomal membrane protein (Homo sapiens, UniProt Q16873); assay: Photoaffinity labelling of THP-1 cell membranes; type: binding; conditions: 20 pM ligand, 0.3 mg THP-1 microsomal membrane protein, SDS-gel autoradiography
T2 construct: 0.3 mg of THP-1 microsomal membrane protein; endogenous in cells; host or cells: THP-1 cells (microsomal membranes)
T2 sequence (Q16873 1-150): T1 sequence (Q16873 1-150)
Protocol: The mixtures were incubated in 1.5 mL microcentrifuge tubes for 30 min. at 25° C. then transferred to 35 mm diameter cluster plate wells for photolysis. The samples in cluster plates were cooled for 5 min. at 4° C. then illuminated from above with a 40W ultraviolet light source (Phillips, λmax =350 nm) at a distance of 5 cm for 2 min. at 4° C. The samples were then transferred back into 1.5 mL microcentrifuge tubes and the membranes were re-isolated by centrifugation for 15 min. at 200,000×g. The resulting pellets were dissociated in SDS-containing sample buffer, denatured at 95° C. for 5 min. and then the proteins were resolved by SDS-gel electrophoresis. Radioactive bands in the dried gels were visualized by autoradiography and quantified by laser densitometry.

[5] = substrate: N[C@@H](CCC(=O)N[C@@H](CS)C(=O)NCC(=O)O)C(=O)O; assay: purified protein, by the assay type; conditions: 25.0 °C
[6] = substrate: CCCCCC=CCC=CC=CC=CC1OC1CCCC(=O)O; assay: purified protein, by the assay type; type: biochemical, human; conditions: 25.0 °C
[7] = other: THP-1 cells LTC4 synthase
[8] = other: human monocytes LTC4 synthase
[9] = purification fractions from 2×10^11 THP-1 cells

Molecule: N[C@@H](CCC(=O)N[C@@H](CS)C(=O)NCC(=O)O)C(=O)O [GSH, Reduced glutathione, reference compound]
- effect on LTC4 synthase binding to the affinity resin (LTC4 synthase [2]): inhibited LTC4 synthase binding to the affinity resin

Molecule: CCCCCC=CCC=CC=CC=CC1OC1CCCC(=O)O (stereo not shown) [LTA4, leukotriene A4, reference compound]
- Preferred substrate (LTC4 synthase [1]): LTA4 free acid >> LTA4 methyl ester
- half-life [3]: approximately 30 min.

Molecule: [Cl-].[Na+] [NaCl]
- effect on LTC4 synthase binding to the affinity resin (LTC4 synthase [2]): inhibited LTC4 synthase binding to the affinity resin

Molecule: CCCCC/C=C\C\C=C/C=C/C=C/[C@@H](SC[C@H](NC(=O)CC[C@H](NC(=O)CCCCCNC(=O)c1cc([125I])c(N=[N+]=[N-])cc1O)C(=O)O)C(=O)NCC(=O)O)[C@@H](O)CCCC(=O)O [Azido^125 I LTC4]
- photoaffinity radiolabelling of membrane polypeptide [4]: specifically radiolabelled a single membrane polypeptide

Further lines, with some results ahead:

- Preferred substrate (LTC4 synthase [1]): LTA4 free acid >> LTA4 methyl ester
Molecule: CCCCCC=CCC=CC=CC=CC1OC1CCCC(=O)OC (stereo not shown) [LTA4 methyl ester, methyl ester of leukotriene A4, reference compound]

- Activity (LTC4 synthase [1]; [9]): 1.378 nmol · min^-1 .multid
- Spec. Activity (LTC4 synthase [1]; [9]): 4135 nmol · min^-1 .multid
- Rel. Spec. Activity (LTC4 synthase [1]; relative to specific activity in harvested cells set at 1.00): 27,384
B1: LTC4 synthase (Homo sapiens) (protein)
chain: T1 sequence (Q16873 1-150)
notes: endogenous in cells; host or cells: THP-1 cells; some values from human lung tissue
- Km [5, 7]: 1670 µM
- Km [5, 8]: 1200 µM
- Km [6, 7]: 9.89 µM
- Km [6, 8]: 5.6 µM
